Patent US20250066490A1 (PROFOUNDBIO US, published 2025)
Positions count from the first letter of the chain named. Blank lines part the entries; values can stand above or below the binder they belong to.

Legend:
[1] = target: T1, human CD70 expressed on the cell surface of tumor cell lines (human, UniProt P32970 1-193); assay: cell-based or functional assay
T1 sequence (looked up): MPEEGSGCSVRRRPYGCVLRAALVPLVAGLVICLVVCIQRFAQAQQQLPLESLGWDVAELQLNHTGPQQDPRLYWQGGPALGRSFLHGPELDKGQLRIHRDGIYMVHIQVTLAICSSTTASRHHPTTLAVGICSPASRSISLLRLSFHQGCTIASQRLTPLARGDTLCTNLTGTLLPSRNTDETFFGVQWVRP

[2] = target: T1, human CD70 expressed on the cell …; assay: flow cytometry on U251 cells
Protocol: (§1) The lead antibodies were tested for binding to renal carcinoma cells and glioblastoma cells expressing CD70 on the cell surface by flow cytometry. […] U251 cells were cultured with MEM medium containing of 10% FBS and 1% NEAA+1 mM sodium pyruvate. DBTRG-05MG cells were cultured with DMEM medium (Gibco, Cat #C11995500BT) containing of 10% FBS. Each of the lead antibodies and the controls were incubated for 30 mins with the different cell lines (3×10⁵ cells per well) in 0.2 ml FACS buffer (1×PBS with 0.1% BSA) at 4° C. Then, the cells were pelleted, washed, and incubated at 4° C. for 30 mins with 100 μl of 1:200 diluted PE-conjugated anti human Fc (Abcam, Ab98596) in FACS buffer. The cells were pelleted again, washed with PBS, resuspended in FACS buffer and analyzed by flow cytometer (Beckman, CytoFLEX).
(§2) Antibodies 2H8 and 2D2 had slightly higher binding ability to the cell lines than that of antibody 69A7.

[3] = target: T1, human CD70 expressed on the cell …; assay: flow cytometry on 786-O cells
Protocol: as §1, §2

[4] = target: T1, human CD70 expressed on the cell …; assay: flow cytometry on Caki-1 cells
Protocol: as §1, §2

[5] = target: T1, human CD70 expressed on the cell …; assay: flow cytometry on DBTRG-05MG cells
Protocol: as §1, §2

[6] = target: T2, CD70 ECD (antigen immobilized on the CM5 chip) (UniProt P32970 39-193); assay: SPR (Biacore T200), CD70 ECD on CM5 chip, IgG as analyte
T2 construct: extracellular domain; also called CD70 antigen
T2 sequence (looked up): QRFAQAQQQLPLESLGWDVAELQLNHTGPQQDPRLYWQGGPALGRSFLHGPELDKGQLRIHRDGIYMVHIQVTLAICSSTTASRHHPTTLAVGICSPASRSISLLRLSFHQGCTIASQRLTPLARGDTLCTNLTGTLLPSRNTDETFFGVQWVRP
Protocol: (§3) The immobilization of antigen CD70 ECD was performed at 25° C. with HBS-EP as the running buffer. Sensor chip surface of flow cells 1, 4 were activated by freshly mixed 50 mmol/L N-Hydroxy succinimide (NHS) and 200 mmol/L 1-ethyl-3-(3-dimethylaminopropyl) carbodiimide hydrochloride (EDC) for 420s (10 μL/min). Afterwards, CD70 antigen diluted in 10 mmol/L NaAC (pH 4.5) was injected into flow cell 4 to achieve conjugation of the appropriate Response Unit, while flow cell 1 was set as a blank. After the amine coupling reaction, the remaining active coupling sites on chip surface were blocked by 420s injection of 1 mol/L ethanolamine hydrochloride.
(§4) The assay was performed at 25° C. and the running buffer was HBS-EP. Diluted antibodies were injected over the surface of flow cells 1 and 4 during the association phase, followed by injecting running buffer as the dissociation phase. All the data were processed using Biacore T200 Evaluation software version 3.1. Flow cell 1 and a blank injection of buffer in each cycle were used as a double reference for Response Units subtraction. Kinetic data of the interaction between the antibodies and CD70 antigen were obtained through affinity measurement.

[7] = target: T3, human CD70 extra-cellular domain (ECD) linked to His tag (human, UniProt P32970 39-193); assay: BLI (Octet RED), antibody on anti-human Fc tips, CD70 ECD-His at 100 nM
T3 construct: extracellular domain; also called Hu CD70; HU CD70; not shown: His tag
T3 sequence (looked up): T2 sequence (looked up)
Protocol: Recombinant proteins consisting of human, rat, or mouse CD70 extra-cellular domain (ECD) linked to His tag was purchased (from ACRO systems). 69A7 and 2E7 (20 nM) were immobilized on anti-human IgG Fc biosensor tips (ForteBio). Binding assays using one concentration (100 nM) of recombinant protein in solution were performed using Octet RED (ForteBio). Association time was set at 180s and dissociation time was set at 300s. Binding affinity was calculated using ForteBio Data Acquisition 6.3 software. Affinity was derived by fitting the kinetic data to a 1:1 Langmuir binding model utilizing global fitting algorithms. […] 2E7 had no cross-reactivity to rat or mouse CD70 (Table 10).

[8] = target: T1, human CD70 expressed on the cell …; assay: flow cytometry on U251 cells, PE anti-human Fc, MFI; same fit as Table 6, which prints it in nM
Protocol: as §1, §2

[9] = target: T4, human CD70 recombinant protein (human, UniProt P32970 39-193, limits assumed); assay: ELISA, IgG titrated on coated human CD70 recombinant protein (2 µg/ml), anti-human Fc-HRP, OD450
T4 construct: May be the same reagent as ACRO CDL-H5246; also called CD70 protein
T4 sequence (looked up): T2 sequence (looked up)
Protocol: (§5) The binding specificity of the CD70 antibodies was tested by ELISA according to a standard protocol. Briefly, 96-well micro-plates were coated with 2 μg/ml of human or cynomolgus CD70 recombinant protein in PBS at 100 μl per well and incubated overnight at 4° C. The plates were washed twice with TBS+0.5% Tween20. 200 μL of blocking buffer (2% BSA in PBS) was added to each well, and the plates were incubated at 37° C. for 2 hours. The plates were washed using the wash buffer mentioned above. Serially diluted antibodies were added to the ELISA plates using 100 μl per well, and the plates were incubated for 1 hour at room temperature. Then plates were washed 3 times. HRP conjugated anti-human Fc antibody solution (Sigma, I18885-2ML, diluted with blocking buffer) was added to the plates using 100 μl per well. The plates were incubated at room temperature for 1 hour and then washed 3 times. Then the TMB solution was added to plates using 100 μl per well and the plates were placed at RT for 5-15 mins. Then the stop solution (2M H2SO4) was added using 50 μl per well. The absorbance was measured at A450 and A630.

[10] = target: T1, human CD70 expressed on the cell …; assay: flow cytometry on 786-O cells, PE anti-human Fc, MFI; same fit as Table 6, which prints it in nM
Protocol: as §1, §2

[11] = target: T1, human CD70 expressed on the cell …; assay: flow cytometry on Caki-1 cells, PE anti-human Fc, MFI; same fit as Table 6, which prints it in nM
Protocol: as §1, §2

[12] = target: T5, cynomolgus CD70 recombinant protein (cynomolgus, UniProt A0A2K5WTU9 39-190); assay: ELISA, IgG titrated on coated cynomolgus CD70 recombinant protein (2 µg/ml), anti-human Fc-HRP, OD450
T5 construct: also called cyno-antigen; cynomolgus CD70 protein
T5 sequence: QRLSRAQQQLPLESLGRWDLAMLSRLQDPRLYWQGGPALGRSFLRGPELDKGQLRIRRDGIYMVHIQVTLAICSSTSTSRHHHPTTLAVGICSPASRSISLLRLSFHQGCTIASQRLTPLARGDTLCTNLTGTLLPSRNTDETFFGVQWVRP
Protocol: as §5

[13] = target: T1, human CD70 expressed on the cell …; assay: flow cytometry on DBTRG-05MG cells, PE anti-human Fc, MFI; same fit as Table 6, which prints it in nM
Protocol: as §1, §2

[14] = target: T2, CD70 ECD (antigen immobilized on the …); assay: SPR (Biacore T200), CD70 ECD on CM5 chip; upper end tied to 2A4P0L1 by the KD values of Table 8
Protocol: as §3, §4

[15] = target: T2, CD70 ECD (antigen immobilized on the …); assay: SPR (Biacore T200), CD70 ECD on CM5 chip; lower end tied to 2D2 by the KD values of Table 8
Protocol: as §3, §4

Internalization rate (%) on 786-O [1]: 64%
Internalization rate (%) on Caki-1 [1]: 27%
EC50 [2]: 8.11 nM
EC50 [3]: 6.49 nM
EC50 [4]: 9.89 nM
EC50 [5]: 11.3 nM
Kd [6]: 313 nM
koff [6]: 0.00198 s⁻¹
kon [6]: 6330 M⁻¹ s⁻¹
Kd [7]: 2.89 nM
koff [7]: 0.000978 s⁻¹
kon [7]: 339000 M⁻¹ s⁻¹
EC50 [8]: 1.22 µg/mL
EC50 [9]: 0.278 µg/mL
EC50 [10]: 0.973 µg/mL
EC50 [11]: 1.48 µg/mL
EC50 [12]: 0.0104 µg/mL
EC50 [13]: 1.7 µg/mL
B1: 69A7 (parent antibody), full IgG (antibody, V domains shown)
VH: QVQLQESGPGLVKPSETLSLTCTVSGGSVSSDYYYWSWIRQPPGKGLEWLGYIYYSGSTNYNPSLKSRVTISVDTSKNQFSLKLRSVTTADTAVYYCARGDGDYGGNCFDYWGQGTLVTVSS
VL: EIVLTQSPATLSLSPGERATLSCRASQSVSSYLAWYQQKPGQAPRLLIFDASNRATGIPARFSGSGSGTDFTLTISSLEPEDFAVYYCQQRSNWPLTFGGGTKVEIK
notes: also called parent antibody 69A7

Internalization rate (%) on 786-O [1]: 76%
Internalization rate (%) on Caki-1 [1]: 62%
EC50 [2]: 7.99 nM
EC50 [3]: 5.12 nM
EC50 [4]: 5.65 nM
EC50 [5]: 9.6 nM
Kd [6]: 43.7 nM
koff [6]: 0.00112 s⁻¹
kon [6]: 25600 M⁻¹ s⁻¹
EC50 [8]: 1.2 µg/mL
EC50 [9]: 0.0595 µg/mL
EC50 [10]: 0.767 µg/mL
EC50 [11]: 0.847 µg/mL
EC50 [12]: 0.00326 µg/mL
EC50 [13]: 1.44 µg/mL
B2: 1H8, full IgG (antibody, V domains shown)
VH: B1 VH with Y104F, G105M, N107V
VL: B1 VL

Internalization rate (%) on 786-O [1]: 49%
Internalization rate (%) on Caki-1 [1]: 20%
EC50 [3]: 142 nM
EC50 [4]: 284 nM
EC50 [5]: 494 nM
EC50 [9]: 9.1 µg/mL
EC50 [10]: 21.3 µg/mL
B3: 2A4, full IgG (antibody, V domains shown)
VH: B1 VH with C108V, D110P
VL: B1 VL

Internalization rate (%) on 786-O [1]: 61%
Internalization rate (%) on Caki-1 [1]: 22%
EC50 [2]: 4.72 nM
EC50 [3]: 2.98 nM
EC50 [4]: 5.44 nM
EC50 [5]: 5.84 nM
Kd [6]: 38.6 nM
koff [6]: 0.00197 s⁻¹
kon [6]: 51000 M⁻¹ s⁻¹
fold improved affinity against parent antibody 69A7 [14]: 3 to 8 fold
EC50 [8]: 0.708 µg/mL
EC50 [9]: 0.263 µg/mL
EC50 [10]: 0.447 µg/mL
EC50 [11]: 0.816 µg/mL
EC50 [12]: 0.00335 µg/mL
EC50 [13]: 0.876 µg/mL
B4: 2A4P0L1, full IgG (antibody, V domains shown)
VH: B1 VH with C108V, D110P
VL: B1 VL with S92L, N93K, W94F

Internalization rate (%) on 786-O [1]: 76%
Internalization rate (%) on Caki-1 [1]: 53%
EC50 [2]: 7.38 nM
EC50 [3]: 5.62 nM
EC50 [4]: 5.98 nM
EC50 [5]: 13.7 nM
Kd [6]: 89.6 nM
koff [6]: 0.00105 s⁻¹
kon [6]: 11700 M⁻¹ s⁻¹
fold improved affinity against parent antibody 69A7 [15]: 3 to 8 fold
EC50 [8]: 1.11 µg/mL
EC50 [9]: 0.087 µg/mL
EC50 [10]: 0.842 µg/mL
EC50 [11]: 0.896 µg/mL
EC50 [12]: 0.00424 µg/mL
EC50 [13]: 2.06 µg/mL
B5: 2D2, full IgG (antibody, V domains shown)
VH: B1 VH
VL: B1 VL with S92L, N93K, W94F

Kd [6]: 52.3 nM
koff [6]: 0.00236 s⁻¹
kon [6]: 45100 M⁻¹ s⁻¹
EC50 [12]: 0.00284 µg/mL
B6: 1F6 (Vorsetuzumab), reference antibody, full IgG (antibody, V domains shown)
VH: QVQLVQSGAEVKKPGASVKVSCKASGYTFTNYGMNWVRQAPGQGLKWMGWINTYTGEPTYADAFKGRVTMTRDTSISTAYMELSRLRSDDTAVYYCARDYGDYGMDYWGQGTTVTVSS
VL: DIVMTQSPDSLAVSLGERATINCRASKSVSTSGYSFMHWYQQKPGQPPKLLIYLASNLESGVPDRFSGSGSGTDFTLTISSLQAEDVAVYYCQHSREVPWTFGQGTKVEIK
notes: also called h1F6; h1 F6
